Earlier results in PMC4497409.
Values joined by “and” are separate entries in the source; they are usually repeats but may differ in a detail not shown here. Identical values can stand only once.

Assays:
[1] = target: Frizzled4 CRD (Mus musculus) (UniProt Q61088); experiment: ELISA
[2] = target: Frizzled4 CRD (Homo sapiens) (UniProt Q9ULV1); experiment: AlphaScreen
[3] = target: Lrp6 P1E1P2E2 (Homo sapiens) (UniProt O75581); experiment: AlphaScreen
Chain of Lrp6 P1E1P2E2 (Homo sapiens) (O75581 20-630): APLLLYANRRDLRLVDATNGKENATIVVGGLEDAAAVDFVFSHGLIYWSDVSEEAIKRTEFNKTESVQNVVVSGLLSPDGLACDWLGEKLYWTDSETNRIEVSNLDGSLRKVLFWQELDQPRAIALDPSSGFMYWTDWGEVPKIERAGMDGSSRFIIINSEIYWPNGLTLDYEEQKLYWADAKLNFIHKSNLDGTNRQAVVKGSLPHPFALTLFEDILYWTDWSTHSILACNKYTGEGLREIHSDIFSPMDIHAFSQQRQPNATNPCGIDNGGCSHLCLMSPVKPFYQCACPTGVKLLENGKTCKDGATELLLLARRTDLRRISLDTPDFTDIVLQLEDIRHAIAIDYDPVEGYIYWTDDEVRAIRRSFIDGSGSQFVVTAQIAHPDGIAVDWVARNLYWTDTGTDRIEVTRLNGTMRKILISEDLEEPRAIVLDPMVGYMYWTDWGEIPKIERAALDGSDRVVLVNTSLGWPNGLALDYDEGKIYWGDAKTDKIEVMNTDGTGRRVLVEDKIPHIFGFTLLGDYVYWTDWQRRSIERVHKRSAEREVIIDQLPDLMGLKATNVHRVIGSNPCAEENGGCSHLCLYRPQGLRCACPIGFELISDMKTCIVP

Chain of Frizzled4 CRD (Homo sapiens) (Q9ULV1 40-161): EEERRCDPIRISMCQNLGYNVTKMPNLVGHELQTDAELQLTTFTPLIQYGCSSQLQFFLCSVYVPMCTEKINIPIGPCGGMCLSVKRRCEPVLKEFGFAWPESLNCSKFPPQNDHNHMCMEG
Chain of Norrin (P48744 25-131): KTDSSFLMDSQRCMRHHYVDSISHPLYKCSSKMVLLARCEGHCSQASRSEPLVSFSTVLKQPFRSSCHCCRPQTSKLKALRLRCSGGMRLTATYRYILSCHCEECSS
Chain of Frizzled4 CRD (Mus musculus) (Q61088 40-161): as the sequence (Q9ULV1 40-161) above, with S12A, K94R, E102D, S103T counted along it

Substance | Kd [1] | Kd [2] | Kd [3]
Norrin (from UniProt P48744) | 3.5 nM |  | 
Norrin (from UniProt Q00604) |  | 11 nM and 5 nM | 450 nM
